Assay [1] deals with T1, Human TROP-2 (人TROP2蛋白, SPR antigen) (human, UniProt P09758 27-274, limits assumed).
T1 construct: The construct used in SPR is not described
T1 sequence (looked up): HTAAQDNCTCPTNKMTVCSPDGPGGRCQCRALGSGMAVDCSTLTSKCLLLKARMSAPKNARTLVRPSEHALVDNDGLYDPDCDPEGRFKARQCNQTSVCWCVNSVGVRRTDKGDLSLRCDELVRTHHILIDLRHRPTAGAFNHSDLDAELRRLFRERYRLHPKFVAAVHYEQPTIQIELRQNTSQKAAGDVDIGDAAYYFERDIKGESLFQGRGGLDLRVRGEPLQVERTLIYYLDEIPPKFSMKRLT
As to the kind of experiment: SPR, IgG. In general terms: Surface plasmon resonance follows binding to a sensor surface in real time, without labels.

The target in assay [2] is T2, Rhesus TROP-2 (猴TROP2蛋白, SPR antigen) (Rhesus (the 2nd table); 食蟹猴 (text paragraph 139), UniProt A0A5F8AGB8 27-274).
T2 construct: also called 食蟹猴TROP2
T2 sequence: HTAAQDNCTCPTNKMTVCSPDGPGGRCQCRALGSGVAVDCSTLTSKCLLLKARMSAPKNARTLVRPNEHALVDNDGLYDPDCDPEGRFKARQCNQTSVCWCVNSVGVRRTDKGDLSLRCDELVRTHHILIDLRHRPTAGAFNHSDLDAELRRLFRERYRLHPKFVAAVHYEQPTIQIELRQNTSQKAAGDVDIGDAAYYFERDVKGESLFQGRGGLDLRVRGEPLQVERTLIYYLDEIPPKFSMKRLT
The assay can be described thus: SPR, IgG.

The target in assay [3] is T1, Human TROP-2 (人TROP2蛋白, SPR antigen). As to the kind of experiment: ELISA (内在亲和力). (In general: ELISA stands for enzyme-linked immunosorbent assay.)
The target is the same in assay [4]. The assay can be described thus: SPR, IgG; reference 1F7.
Assay [5] has as its target T2, Rhesus TROP-2 (猴TROP2蛋白, SPR antigen). As to the kind of experiment: SPR, IgG; reference 1F7.
In assay [6] the target is T3, 人TROP2 on cells (表达TROP2的CHO细胞系; MCF, MDA-MB-231, MDA-MB-468, HCC1395 breast cancer cells) (human, UniProt P09758 27-323).
T3 construct: whole, on cells; also called 细胞膜表面的TROP2抗原; 人细胞表面抗原TROP2
T3 sequence (looked up): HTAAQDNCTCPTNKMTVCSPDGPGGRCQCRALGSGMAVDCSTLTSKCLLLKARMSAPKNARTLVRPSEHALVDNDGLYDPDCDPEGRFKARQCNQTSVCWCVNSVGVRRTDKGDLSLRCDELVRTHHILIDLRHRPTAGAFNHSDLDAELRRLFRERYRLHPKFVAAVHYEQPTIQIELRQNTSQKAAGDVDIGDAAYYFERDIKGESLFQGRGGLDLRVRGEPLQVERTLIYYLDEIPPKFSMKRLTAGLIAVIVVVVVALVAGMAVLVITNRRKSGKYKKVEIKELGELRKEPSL
The assay can be described thus: flow cytometry on MDA-MB-231 cells, PE anti-human IgG Fc. (In general: A flow cytometer gives signals particle by particle.)

Assay [7] has as its target T3, 人TROP2 on cells (表达TROP2的CHO细胞系; MCF, …). As to the kind of experiment: flow cytometry on MCF cells, PE anti-human IgG Fc.
Assay [8] shares this target. As to the kind of experiment: flow cytometry on MDA-MB-468 cells, PE anti-human IgG Fc.
For assay [9], the target named is T4, 人T细胞的CD3 (CD3+ T细胞) (human, UniProt P07766 23-207; P04234 22-171; P09693 23-182; P20963 22-164).
T4 construct: whole, on cells; also called T细胞表面抗原CD3
T4 sequence (P07766 23-207, chain 1 of 4): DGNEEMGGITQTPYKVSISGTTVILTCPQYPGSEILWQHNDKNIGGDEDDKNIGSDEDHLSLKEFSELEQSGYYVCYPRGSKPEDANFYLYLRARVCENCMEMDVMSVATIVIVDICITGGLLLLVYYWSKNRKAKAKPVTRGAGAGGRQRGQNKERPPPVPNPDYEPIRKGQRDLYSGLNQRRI
T4 sequence (P04234 22-171, chain 2 of 4): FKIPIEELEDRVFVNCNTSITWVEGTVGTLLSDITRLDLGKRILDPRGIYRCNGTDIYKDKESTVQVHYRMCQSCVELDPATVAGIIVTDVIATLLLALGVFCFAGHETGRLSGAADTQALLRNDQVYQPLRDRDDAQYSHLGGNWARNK
T4 sequence (P09693 23-182, chain 3 of 4): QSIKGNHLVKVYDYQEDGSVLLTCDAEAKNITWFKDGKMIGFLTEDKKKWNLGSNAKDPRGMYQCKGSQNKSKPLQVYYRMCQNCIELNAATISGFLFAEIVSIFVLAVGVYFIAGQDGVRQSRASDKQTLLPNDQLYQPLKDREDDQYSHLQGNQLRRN
T4 sequence (P20963 22-164, chain 4 of 4): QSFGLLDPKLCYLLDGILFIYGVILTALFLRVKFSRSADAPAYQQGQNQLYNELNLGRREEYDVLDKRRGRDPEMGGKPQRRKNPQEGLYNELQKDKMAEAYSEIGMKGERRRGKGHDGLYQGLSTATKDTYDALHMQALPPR
The assay can be described thus: flow cytometry on CD3+ T cells, PE anti-human IgG Fc.

For assay [10], the target named is T3, 人TROP2 on cells (表达TROP2的CHO细胞系; MCF, …). As to the kind of experiment: flow cytometry on HCC1395 cells, PE anti-human IgG Fc.
Assay [11] concerns the target T5, TROP2抗原 (TROP2-Fc融合蛋白, Acrobiosystems, 目录号TR2-H5253) (human, UniProt P09758 27-274).
T5 construct: not shown: human antibody Fc
T5 sequence (looked up): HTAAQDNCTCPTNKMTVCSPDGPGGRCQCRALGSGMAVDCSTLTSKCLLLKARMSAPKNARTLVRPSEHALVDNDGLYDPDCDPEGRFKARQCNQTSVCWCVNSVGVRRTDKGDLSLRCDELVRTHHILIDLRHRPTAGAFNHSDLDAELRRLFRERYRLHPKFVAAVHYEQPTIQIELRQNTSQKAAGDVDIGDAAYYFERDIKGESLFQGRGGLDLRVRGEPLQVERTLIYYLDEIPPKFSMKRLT
The assay can be described thus: monoclonal phage ELISA, TROP2 antigen coated at 1 μg/ml, positive = more than 3x negative control.

We go through four molecules from patent publication CN115536747A (YIKESITE BEIJING PHARMACEUTICAL TECH DEVELOPMENT CO LTD, dated 2022).

B1: 1F7亲本抗体 (IgG形式) (antibody, V domains shown)
VH: QVQLVQSGAEVKKPGASVKVSCKASGYTFTSYGINWVRQATGRGLEWMGWMNPNSGNTGYAQKFQGRVTITADESTSTAYMELSSLRSEDTAVYYCARPNTGGDGAFDIWGQGTMVTVSS
VL: DIQLTQSPSSVSASVGDRVTITCRASQGISSWLAWYRQKPGKAPKLLIYAASSLQSGVPSRFSGSGSGTDFTLTISSLQPEDFATYYCQQANSFPITFGQGTRLEIKR
Turning to B1, the Kd (as a rule, the free concentration of one partner at which half of the binding sites on the other are occupied at equilibrium, for simple one-to-one binding) was 7.57 nM in assay [1], 40.7 nM in assay [2] and about 7.5 nM in assay [3]. Also, the koff (commonly the first-order rate constant of dissociation) in assay [1] worked out at 0.000892 s⁻¹; in assay [2] it was 0.000942 s⁻¹. Besides, the kon (commonly the second-order rate constant of association) in [1] was found to be 118000 M⁻¹ s⁻¹; in assay [2], 23100 M⁻¹ s⁻¹.

B2: 突变体F7A (IgG形式) (antibody, V domains shown)
VH: QVQLVQSGAEVKKPGASVKVSCKASGYTFTNYGINWVRQATGRGLEWMGWMNPRSGNTGYAQKFQGRVTITADESTSTAYMELSSLRSEDTAVYYCARPNTGGDGAFDIWGQGTMVTVSS
VL: DIQLTQSPSSVSASVGDRVTITCRASQGISSWLAWYRQKPGKAPKLLIYRARSLQSGVPSRFSGSGSGTDFTLTISSLQPEDFATYYCQQANSFPVTFGQGTRLEIKR
In the case of B2, in assay [1], the Kd came to 4.35 nM, the off-rate constant (koff) was determined as 0.000834 s⁻¹ and the kon stood at 192000 M⁻¹ s⁻¹. In assay [2], this molecule displayed a Kd of 12.8 nM, a koff of 0.00165 s⁻¹ and a kon of 128000 M⁻¹ s⁻¹. In addition, the “fold improvement of binding against 1F7” value in [4] was 1.74 倍. For the same molecule, in assay [5], the “fold improvement of affinity against 1F7” value is 3.18 倍.

B3: 双特异性抗体F7AK3 (TROP2×CD3, cFIST形式) (bispecific antibody, human IgG4 S228P, kappa)
heavy: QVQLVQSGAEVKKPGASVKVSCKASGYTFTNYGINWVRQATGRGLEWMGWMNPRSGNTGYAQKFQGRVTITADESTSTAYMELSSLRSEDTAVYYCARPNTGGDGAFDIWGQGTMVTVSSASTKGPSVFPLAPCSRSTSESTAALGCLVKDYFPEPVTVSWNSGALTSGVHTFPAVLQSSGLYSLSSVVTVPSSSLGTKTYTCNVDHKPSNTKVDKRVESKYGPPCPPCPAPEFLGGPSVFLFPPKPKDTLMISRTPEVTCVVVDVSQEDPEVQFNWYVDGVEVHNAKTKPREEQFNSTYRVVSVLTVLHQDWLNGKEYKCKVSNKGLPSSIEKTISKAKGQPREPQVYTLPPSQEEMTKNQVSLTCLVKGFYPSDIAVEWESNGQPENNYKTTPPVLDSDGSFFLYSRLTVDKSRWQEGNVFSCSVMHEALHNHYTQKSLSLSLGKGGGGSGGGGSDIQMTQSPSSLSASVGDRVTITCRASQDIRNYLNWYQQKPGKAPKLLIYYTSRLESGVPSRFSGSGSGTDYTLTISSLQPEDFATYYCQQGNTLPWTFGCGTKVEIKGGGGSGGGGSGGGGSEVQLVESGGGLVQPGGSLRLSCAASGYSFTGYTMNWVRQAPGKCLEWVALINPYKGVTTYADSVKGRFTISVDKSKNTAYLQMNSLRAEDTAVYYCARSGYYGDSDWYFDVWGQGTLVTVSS
light: DIQLTQSPSSVSASVGDRVTITCRASQGISSWLAWYRQKPGKAPKLLIYRARSLQSGVPSRFSGSGSGTDFTLTISSLQPEDFATYYCQQANSFPVTFGQGTRLEIKRTVAAPSVFIFPPSDEQLKSGTASVVCLLNNFYPREAKVQWKVDNALQSGNSQESVTEQDSKDSTYSLSSTLTLSKADYEKHKVYACEVTHQGLSSPVTKSFNRGEC
notes: also called F7AK3双抗
Consider B3, for which the concentration giving a half-maximal response (EC50) (in general, the concentration that produces a half-maximal response) turned out to be 0.0891 µg/mL in [6]; 0.205 µg/mL in assay [7]; 0.0668 µg/mL in [8]; 0.568 µg/mL in [9]; 0.0532 µg/mL in [10].

B4: 1F7单链抗体 (scFv shown on M13 phage) (scFv)
scFv: QVQLVQSGAEVKKPGASVKVSCKASGYTFTSYGINWVRQATGRGLEWMGWMNPNSGNTGYAQKFQGRVTITADESTSTAYMELSSLRSEDTAVYYCARPNTGGDGAFDIWGQGTMVTVSSGGSSRSSSSGGGGSGGGGDIQLTQSPSSVSASVGDRVTITCRASQGISSWLAWYRQKPGKAPKLLIYAASSLQSGVPSRFSGSGSGTDFTLTISSLQPEDFATYYCQQANSFPITFGQGTRLEIK
notes: The phage coat protein fusion is not described; also called hit
As for B4, in [11], the binding result is “binds”.
